B1: antibody 343 (antibody, V domains shown)
VH: QVQLVESGGDVVQPGTSLRLSCAASGFTFNNYGFHWVRQAPGKGLEWVALISSDGASTHYADSVKGRFTISRDSSVNTLYLQMNSLSLEDTAVYYCATGHCGTTCYYFDYWGQGTLVSVSS
VL: DIQVTQSPSYLSASVGDRVTITCRASQTISTFLQWYQQKVGKAPKLLIYAASTLQSGVPSRFSGSGSGTDFSLTISSLQPEDFATYYCQQSYSAPLSFGGGTKVEIK
B2: antibody 333 (antibody, V domains shown)
VH: QVHLVESGGGVVLPGRSLRLSCSASQFIFSNYDMHWVRQSPGMGLEWVAGISSDGSDKYYIDSVRGRFTISRDNAKNTLFLQMNSLTTEDTAVYSCAKGGGKFGQYWGRGTLVTVSS
VL: AIQMTQSPSSLSASVGDRVTITCRASQVIRNDLAWFQQKPGEAPNLLVYSASNLQSGVPSRFSGSGSGTDFTLTISSLQPEDFATYYCLQDYSYPYTFGQGTKLDMK
B3: antibody 348 (antibody, V domains shown)
VH: QVQLVQSGSELKKPGASVKVSCKASGYTFTSYAMNWVRQAPGQGLEWMGWINTNTGNPTYAQGFTGRFVFSLDTSVSTAYLQISSLKAEDTAVYYCARDHELPNTSSWFGHFEYWGQGTLVTVSS
VL: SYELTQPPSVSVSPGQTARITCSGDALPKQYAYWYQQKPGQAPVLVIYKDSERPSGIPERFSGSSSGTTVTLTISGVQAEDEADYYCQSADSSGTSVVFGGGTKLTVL
B4: antibody 332 (antibody, V domains shown)
VH: QVTLRESGPALVKPTQTLTLTCTFSGFSLSTSGMCVSWIRQPPGKALEWLALIDWDDDKYYSTSLKTRLTISKDTSKNQVVLTMTNMDPVDTATYYCARIHDDILTGYHYVDYWGQGTLVTVSS
VL: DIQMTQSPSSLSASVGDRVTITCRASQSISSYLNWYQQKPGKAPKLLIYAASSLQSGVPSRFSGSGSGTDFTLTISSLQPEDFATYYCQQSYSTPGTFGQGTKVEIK
B5: antibody 340 (antibody, V domains shown)
VH: QVQLVQSGAEVKKPGASVKVSCKASGYTFTSYDINWVRQATGQGLEWMGWMNPNSGNTGYAQKFQGRVTMTRNTSISTAYMELSSLRSEDTAVYYCARGRYCTGGVCWGDWYFDLWGRGTLVTVSS
VL: QSVLTQPPSVSGAPGQRVTISCTGSSSNIGAGYDVHWYQQLPGTAPKFLIYGNSNRPSGVPDRFSGSKSGTSASLAITGLQAEDEADYYCQSYDSSLSGPVFGGGTKLTVL
B6: antibody 363 (antibody, V domains shown)
VH: EVQLLESGGGLVQPGGSLRLSCAASGFTFSTYAMSWVRQAPGKGLEWVSAISGSGGSTYYADSVKGRFTISRDNSKNTLYLQMNSLRAEDTAVYYCASGYSPDYWGQGTLVTVSS
VL: not shown
B7: antibody 345 (antibody, V domains shown)
VH: QVQLQESGPGLVKPSQTLSLTCTVSGGSISSGDYYWSWIRQPPGKGLEWIGYIYYSGSTYYNPSLKSRVTISVDTSKNQFSLKLSSVTAADTAVYYCARVGMVDNWNFEGNWFDPWGQGTLVTVSS
VL: QSALTQPRSVSGSPGQSVTISCTGTSSDVGGYNYVSWYQQHPGKAPKLMIYDVSKRPSGVPDRFSGSKSGNTASLTISGLQAEDEADYYCCSYAGSVVFGGGTKLTVL
B8: antibody 344 (antibody, V domains shown)
VH: QVQLVESGGGVVQPGRSLRLSCAASGFTFSSYAMHWVRQAPGKGLEWMAVISYDGSNKYYADSVKGRFTISRDNSKNTLYLQMNSLRAEDTAVYFCAKGYSGSYYEPFDYWGQGTLVTVSS
VL: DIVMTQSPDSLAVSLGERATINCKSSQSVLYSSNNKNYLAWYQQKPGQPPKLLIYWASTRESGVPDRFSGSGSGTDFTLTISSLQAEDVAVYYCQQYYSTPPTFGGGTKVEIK
B9: anti-SARS-CoV-2 antibody 936 (antibody, V domains shown)
VH: EVQLVESGGGLVQPGRSLTLSCAGSGFTFDDYAMHWVRQAPGKGLEWVSGISWNSGSIGYADSVKGRFTISRDNAKNSLYLQMNSLRAEDTALYYCAKDVSYDSSGYYNNAFDIWGQGTMVTVSS
VL: DIQLTQSPSFLSASVGDRVTITCRASQGISSYLAWYQQKPGKAPKLLIYAASTLQSGVPSRFSGSGSGTEFTLTISSLQPEDFATYYCQQLYSYPVTFGQGTRLEIKR

One assay deals with SARS-CoV-2 full length Spike protein, wild type (SARS-CoV-2, UniProt P0DTC2 14-1208).
Turning to B1, the “bead binding signal (fold over isotype)” value amounted to 1.2 fold over isotype.

As to B2, the “bead binding signal (fold over isotype)” value amounted to 1.08 fold over isotype.

In the case of B3, the “bead binding signal (fold over isotype)” value is 869 fold over isotype.

Take B4: the “bead binding signal (fold over isotype)” value worked out at 1.22 fold over isotype.

As to B5, the “bead binding signal (fold over isotype)” value was 547 fold over isotype.

In the case of B6, the “bead binding signal (fold over isotype)” value is 1030 fold over isotype.

Consider B7, for which the “bead binding signal (fold over isotype)” value was determined as 562 fold over isotype.

For the molecule B8, the “bead binding signal (fold over isotype)” value is 404 fold over isotype.

A further assay concerns the target SARS-CoV-2 full length Spike protein, wild type, expressed on CHO cells (SARS-CoV-2, UniProt P0DTC2 14-1273).
B9: the “median fluorescence intensity, fold over isotype control” value amounted to 33.1 fold over isotype.
